T1: Human glycophorin A on human erythrocytes (human, UniProt P02724 20-150)
T1 construct: whole, on cells; Target of the flow cytometry assays on human erythrocytes; also called human GPA; hGPA
T1 sequence (looked up): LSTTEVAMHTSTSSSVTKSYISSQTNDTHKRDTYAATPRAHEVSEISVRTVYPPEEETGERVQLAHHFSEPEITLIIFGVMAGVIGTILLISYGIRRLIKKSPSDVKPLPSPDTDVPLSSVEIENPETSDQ

T2: Human glycophorin A extract (hGPA extract) (human, UniProt P02724 20-150)
T2 construct: also called human GPA extracted from red blood cells (extract)
T2 sequence (looked up): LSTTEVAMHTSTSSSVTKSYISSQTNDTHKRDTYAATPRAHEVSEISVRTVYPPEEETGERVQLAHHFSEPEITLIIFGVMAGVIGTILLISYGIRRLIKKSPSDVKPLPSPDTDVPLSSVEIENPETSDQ


Assays:
[1] = target: T1, Human glycophorin A on human …; test: flow cytometry (FACS) on human erythrocytes, soluble Fab
[2] = target: T2, Human glycophorin A extract (hGPA …); test: Octet BLI, hGPA extract, apparent
[3] = target: T2, Human glycophorin A extract (hGPA …); test: Biacore SPR, hGPA extract, apparent KD
[4] = target: T2, Human glycophorin A extract (hGPA …); test: Octet BLI, hGPA extract, apparent KD
[5] = target: T2, Human glycophorin A extract (hGPA …); test: Biacore SPR, hGPA extract, apparent

Row | Binder | EC50 [1] [nM] | koff [2] [s⁻¹] | kon [2] [M⁻¹ s⁻¹] | Kd [3] [nM] | Kd [4] [nM] | koff [5] [s⁻¹] | kon [5] [M⁻¹ s⁻¹]
1 | Humanized 10F7-M10 Fab (non-affinity matured) (Fab, Soluble Fab expressed in HEK cells; also called clone m10; wild-type 10F7-M10) heavy: EVQLLESGGGLVQPGKSLRLSCKASGYTFNSYFMHWVRQAPGKGLEWVGMIRPNGGTTDYNEKFKNRFTLSVDKSKNTAYLQMNSLRAEDTAVYYCARWEGSYYALDYWGQGTASTKGPSVFPLAPSSKSTSGGTAALGCLVKDYFPEPVTVSWNSGALTSGVHTFPAVLQSSGLYSLSSVVTVPSSSLGTQTYICNVNHKPSNTKVDKKVEPKSC light: EITLTQSPATLSLSPGERATLSCRASSNVKYMYWYQQKPGQAPRLWIYYTSNLASGIPDRFSGSGSGTDYTLTISRLEPEDFAVYYCQQFTSSPYTFGQGTKVEVKRTVAAPSVFIFPPSDEQLKSGTASVVCLLNNFYPREAKVQWKVDNALQSGNSQESVTEQDSKDSTYSLSSTLTLSKADYEKHKVYACEVTHQGLSSPVTKSFNRGEC | 73 | 0.0067 | 47000 | 141 | 140 | 0.00667 | 47300
2 | Humanized & affinity matured 10F7-M10 Fab clone L1+2-8 (Fab, Soluble Fab from HEK cells; all domains other than VL are the same as wild-type 10F7-M10; also called ID-HH-Y) heavy: EVQLLESGGGLVQPGKSLRLSCKASGYTFNSYFMHWVRQAPGKGLEWVGMIRPNGGTTDYNEKFKNRFTLSVDKSKNTAYLQMNSLRAEDTAVYYCARWEGSYYALDYWGQGTASTKGPSVFPLAPSSKSTSGGTAALGCLVKDYFPEPVTVSWNSGALTSGVHTFPAVLQSSGLYSLSSVVTVPSSSLGTQTYICNVNHKPSNTKVDKKVEPKSC light: EITLTQSPATLSLSPGERATLSCRASSNVIDMYWYQQKPGQAPRLWIHHTSYLASGIPDRFSGSGSGTDYTLTISRLEPEDFAVYYCQQFTSSPYTFGQGTKVEVKRTVAAPSVFIFPPSDEQLKSGTASVVCLLNNFYPREAKVQWKVDNALQSGNSQESVTEQDSKDSTYSLSSTLTLSKADYEKHKVYACEVTHQGLSSPVTKSFNRGEC | 14 | 0.0022 | 200000 | 11 | 11 | 0.00218 | 198000
3 | Humanized & affinity matured 10F7-M10 Fab clone L1+2-14 (Fab, Soluble Fab from HEK cells; all domains other than VL are the same as wild-type 10F7-M10; also called HQ-HH-K) heavy: EVQLLESGGGLVQPGKSLRLSCKASGYTFNSYFMHWVRQAPGKGLEWVGMIRPNGGTTDYNEKFKNRFTLSVDKSKNTAYLQMNSLRAEDTAVYYCARWEGSYYALDYWGQGTASTKGPSVFPLAPSSKSTSGGTAALGCLVKDYFPEPVTVSWNSGALTSGVHTFPAVLQSSGLYSLSSVVTVPSSSLGTQTYICNVNHKPSNTKVDKKVEPKSC light: EITLTQSPATLSLSPGERATLSCRASSNVHQMYWYQQKPGQAPRLWIHHTSKLASGIPDRFSGSGSGTDYTLTISRLEPEDFAVYYCQQFTSSPYTFGQGTKVEVKRTVAAPSVFIFPPSDEQLKSGTASVVCLLNNFYPREAKVQWKVDNALQSGNSQESVTEQDSKDSTYSLSSTLTLSKADYEKHKVYACEVTHQGLSSPVTKSFNRGEC | 6.4 | 0.00057 | 17000 | 32.8 | 33 | 0.000568 | 17300
4 | Humanized & affinity matured 10F7-M10 Fab clone L1+2-25 (Fab, also called L1 + 2-8-25; AW-YH-K) heavy: EVQLLESGGGLVQPGKSLRLSCKASGYTFNSYFMHWVRQAPGKGLEWVGMIRPNGGTTDYNEKFKNRFTLSVDKSKNTAYLQMNSLRAEDTAVYYCARWEGSYYALDYWGQGTASTKGPSVFPLAPSSKSTSGGTAALGCLVKDYFPEPVTVSWNSGALTSGVHTFPAVLQSSGLYSLSSVVTVPSSSLGTQTYICNVNHKPSNTKVDKKVEPKSC light: EITLTQSPATLSLSPGERATLSCRASSNVAWMYWYQQKPGQAPRLWIYHTSKLASGIPDRFSGSGSGTDYTLTISRLEPEDFAVYYCQQFTSSPYTFGQGTKVEVKRTVAAPSVFIFPPSDEQLKSGTASVVCLLNNFYPREAKVQWKVDNALQSGNSQESVTEQDSKDSTYSLSSTLTLSKADYEKHKVYACEVTHQGLSSPVTKSFNRGEC | 100 |  |  |  |  |  | 
5 | Humanized & affinity matured 10F7-M10 Fab clone L1+2-21 (Fab, Soluble Fab from HEK cells; all domains other than VL are the same as wild-type 10F7-M10; also called YF-HH-V) heavy: EVQLLESGGGLVQPGKSLRLSCKASGYTFNSYFMHWVRQAPGKGLEWVGMIRPNGGTTDYNEKFKNRFTLSVDKSKNTAYLQMNSLRAEDTAVYYCARWEGSYYALDYWGQGTASTKGPSVFPLAPSSKSTSGGTAALGCLVKDYFPEPVTVSWNSGALTSGVHTFPAVLQSSGLYSLSSVVTVPSSSLGTQTYICNVNHKPSNTKVDKKVEPKSC light: EITLTQSPATLSLSPGERATLSCRASSNVYFMYWYQQKPGQAPRLWIHHTSVLASGIPDRFSGSGSGTDYTLTISRLEPEDFAVYYCQQFTSSPYTFGQGTKVEVKRTVAAPSVFIFPPSDEQLKSGTASVVCLLNNFYPREAKVQWKVDNALQSGNSQESVTEQDSKDSTYSLSSTLTLSKADYEKHKVYACEVTHQGLSSPVTKSFNRGEC | 3.7 | 0.0013 | 260000 | 5.12 | 5.1 | 0.00132 | 257000
6 | Humanized & affinity matured 10F7-M10 Fab clone L1+2-17 (Fab, Soluble Fab from HEK cells; all domains other than VL are the same as wild-type 10F7-M10; also called YF-HH-D) heavy: EVQLLESGGGLVQPGKSLRLSCKASGYTFNSYFMHWVRQAPGKGLEWVGMIRPNGGTTDYNEKFKNRFTLSVDKSKNTAYLQMNSLRAEDTAVYYCARWEGSYYALDYWGQGTASTKGPSVFPLAPSSKSTSGGTAALGCLVKDYFPEPVTVSWNSGALTSGVHTFPAVLQSSGLYSLSSVVTVPSSSLGTQTYICNVNHKPSNTKVDKKVEPKSC light: EITLTQSPATLSLSPGERATLSCRASSNVYFMYWYQQKPGQAPRLWIHHTSDLASGIPDRFSGSGSGTDYTLTISRLEPEDFAVYYCQQFTSSPYTFGQGTKVEVKRTVAAPSVFIFPPSDEQLKSGTASVVCLLNNFYPREAKVQWKVDNALQSGNSQESVTEQDSKDSTYSLSSTLTLSKADYEKHKVYACEVTHQGLSSPVTKSFNRGEC | 3.4 | 0.00093 | 160000 | 5.97 | 6 | 0.000931 | 156000
7 | Humanized & affinity matured 10F7-M10 Fab clone L1+2-24 (Fab, Soluble Fab from HEK cells; all domains other than VL are the same as wild-type 10F7-M10; also called QQ-HH-I) heavy: EVQLLESGGGLVQPGKSLRLSCKASGYTFNSYFMHWVRQAPGKGLEWVGMIRPNGGTTDYNEKFKNRFTLSVDKSKNTAYLQMNSLRAEDTAVYYCARWEGSYYALDYWGQGTASTKGPSVFPLAPSSKSTSGGTAALGCLVKDYFPEPVTVSWNSGALTSGVHTFPAVLQSSGLYSLSSVVTVPSSSLGTQTYICNVNHKPSNTKVDKKVEPKSC light: EITLTQSPATLSLSPGERATLSCRASSNVQQMYWYQQKPGQAPRLWIHHTSILASGIPDRFSGSGSGTDYTLTISRLEPEDFAVYYCQQFTSSPYTFGQGTKVEVKRTVAAPSVFIFPPSDEQLKSGTASVVCLLNNFYPREAKVQWKVDNALQSGNSQESVTEQDSKDSTYSLSSTLTLSKADYEKHKVYACEVTHQGLSSPVTKSFNRGEC | 23 | 0.008 | 380000 | 21 | 21 | 0.00802 | 382000

More lines, now with the values ahead:

Row | EC50 [1] [nM] | koff [2] [s⁻¹] | kon [2] [M⁻¹ s⁻¹] | Kd [3] [nM] | Kd [4] [nM] | koff [5] [s⁻¹] | kon [5] [M⁻¹ s⁻¹] | Binder
8 | 3.4 | 0.0016 | 220000 | 7 | 7 | 0.00155 | 222000 | Humanized & affinity matured 10F7-M10 Fab clone L1+2-15 (Fab, Soluble Fab from HEK cells; all domains other than VL are the same as wild-type 10F7-M10; also called FY-HH-W) heavy: EVQLLESGGGLVQPGKSLRLSCKASGYTFNSYFMHWVRQAPGKGLEWVGMIRPNGGTTDYNEKFKNRFTLSVDKSKNTAYLQMNSLRAEDTAVYYCARWEGSYYALDYWGQGTASTKGPSVFPLAPSSKSTSGGTAALGCLVKDYFPEPVTVSWNSGALTSGVHTFPAVLQSSGLYSLSSVVTVPSSSLGTQTYICNVNHKPSNTKVDKKVEPKSC light: EITLTQSPATLSLSPGERATLSCRASSNVFYMYWYQQKPGQAPRLWIHHTSWLASGIPDRFSGSGSGTDYTLTISRLEPEDFAVYYCQQFTSSPYTFGQGTKVEVKRTVAAPSVFIFPPSDEQLKSGTASVVCLLNNFYPREAKVQWKVDNALQSGNSQESVTEQDSKDSTYSLSSTLTLSKADYEKHKVYACEVTHQGLSSPVTKSFNRGEC
9 | 3.3 | 0.0014 | 220000 | 6.43 | 6.4 | 0.00143 | 222000 | Humanized & affinity matured 10F7-M10 Fab clone L1+2-10 (Fab, Soluble Fab from HEK cells; all domains other than VL are the same as wild-type 10F7-M10; also called WF-HH-E) heavy: EVQLLESGGGLVQPGKSLRLSCKASGYTFNSYFMHWVRQAPGKGLEWVGMIRPNGGTTDYNEKFKNRFTLSVDKSKNTAYLQMNSLRAEDTAVYYCARWEGSYYALDYWGQGTASTKGPSVFPLAPSSKSTSGGTAALGCLVKDYFPEPVTVSWNSGALTSGVHTFPAVLQSSGLYSLSSVVTVPSSSLGTQTYICNVNHKPSNTKVDKKVEPKSC light: EITLTQSPATLSLSPGERATLSCRASSNVWFMYWYQQKPGQAPRLWIHHTSELASGIPDRFSGSGSGTDYTLTISRLEPEDFAVYYCQQFTSSPYTFGQGTKVEVKRTVAAPSVFIFPPSDEQLKSGTASVVCLLNNFYPREAKVQWKVDNALQSGNSQESVTEQDSKDSTYSLSSTLTLSKADYEKHKVYACEVTHQGLSSPVTKSFNRGEC
10 | 3.3 | 0.0018 | 310000 | 5.95 | 5.9 | 0.00185 | 311000 | Humanized & affinity matured 10F7-M10 Fab clone L1+2-1 (Fab, Soluble Fab from HEK cells; all domains other than VL are the same as wild-type 10F7-M10; also called FF-HH-N) heavy: EVQLLESGGGLVQPGKSLRLSCKASGYTFNSYFMHWVRQAPGKGLEWVGMIRPNGGTTDYNEKFKNRFTLSVDKSKNTAYLQMNSLRAEDTAVYYCARWEGSYYALDYWGQGTASTKGPSVFPLAPSSKSTSGGTAALGCLVKDYFPEPVTVSWNSGALTSGVHTFPAVLQSSGLYSLSSVVTVPSSSLGTQTYICNVNHKPSNTKVDKKVEPKSC light: EITLTQSPATLSLSPGERATLSCRASSNVFFMYWYQQKPGQAPRLWIHHTSNLASGIPDRFSGSGSGTDYTLTISRLEPEDFAVYYCQQFTSSPYTFGQGTKVEVKRTVAAPSVFIFPPSDEQLKSGTASVVCLLNNFYPREAKVQWKVDNALQSGNSQESVTEQDSKDSTYSLSSTLTLSKADYEKHKVYACEVTHQGLSSPVTKSFNRGEC

From patent publication US20220153859A1 (ANOKION, published 2022)
